# Data from paper doi:10.1101/2022.05.05.490853 (bioRxiv, 2022).
# Where a chain is given by its changes, count along the chain named.
# B1: recombinant monoclonal antibody 15E2 (antibody, V domains shown)
# VH: QSLEESGGGLFKPTDTLTLTCTVSGIDLSSYAMIWVRQAPGKGLEWIGYIWSSGRIWYASWAKGRFTISRTSTTVDLKLASPTTEDTATYFCARLWDIWGPGTLVTVSS
# VL: AQVLTQTPSSVSAAVGGTVTISCQASQSLYNGVNLAWYQQKPGQPPKLLIFGASNLESGVSSRFRGSGSGTQFTLTISGVQCDDAATYYCLGEFSCSSADCLAFGGGTEVVVK
# B2: recombinant monoclonal antibody 1D11 (re-cloned, second most abundant VH and VL) (antibody, V domains shown)
# VH: QSLVESGGGLVQPEGSLTLTCKASGFSFSSGYDMCWVRQAPGKGLEYIACIDAGDDITHYASWVKGRFTVSKTSSTTVTLQLNSLTVADTATYFCGRFWDLWGPGTLVTVSS
# VL: SSVLTQTPSPVSAAVGGTVTINCQSSQSVYDSTWLGWYQQKPGQPPKLLIYKASNLASGVPSRFKGSGSGTHFTLTISDLECDDAATYYCVGGYSGSVDNWAFGGGTEVVVK
# B3: recombinant monoclonal antibody 17A8 (antibody, V domains shown)
# VH: QSVEESGGRLVTPGTPLTLTCTVSGFPLSSYSMAWVRQAPGKGLEYIGFINTDGSAYYASWAKGRITISKTSTTVELKITSPTTEDTATYFCGTGNIWGPGTLVTVSS
# VL: AQVLTQTPSSVSAAVGGTVTINCQASQSVSNNNVLAWFQQKPGQPPKRLIYSALTLDSGVPSRFKGSGSGTHFTLTISGVQCDDAATYYCAGGYDCSSNDCIAFGGGTEVVVK
# B4: recombinant monoclonal antibody 28D3 (antibody, V domains shown)
# VH: B3 VH with P27S, A34G, F49M, N51I, T52S, D53N, G54N, A56T
# VL: B3 VL with S9A, V29T, V34A, A103T
# B5: antibody in the supernatant of B cell line 15E2 (antibody, V domains shown)
# VH: B1 VH
# VL: B1 VL
# B6: antibody in the supernatant of B cell line 1D11 (antibody, V domains shown)
# VH: B2 VH
# VL: B2 VL
# B7: antibody in the supernatant of B cell line 28D3 (antibody, V domains shown)
# VH: B3 VH with P27S, A34G, F49M, N51I, T52S, D53N, G54N, A56T
# VL: B3 VL with S9A, V29T, V34A, A103T
# B8: antibody in the supernatant of B cell line 17A8 (antibody, V domains shown)
# VH: B3 VH
# VL: B3 VL
# Target: T1, recombinant VlsE protein (vlsE cassette region of B. burgdorferi B31-5A3) (Borreliella burgdorferi B31, clone …, UniProt O06878)
# Assay: ELISA
row,Binder,binding result
1,B1,binds
2,B2,binds
3,B3,binds
4,B4,binds

# Target: T1, recombinant VlsE protein (vlsE cassette …)
# Assay: ELISA
# Remark: another data set of the same source
row,Binder,binding result
1,B5,binds
2,B6,binds
3,B7,binds
4,B8,binds
